# Source: patent US20250066503A1, “CELL INJURY INDUCING THERAPEUTIC DRUG FOR USE IN CANCER THERAPY” (CHUGAI SEIYAKU KABUSHIKI KAISHA, priority 2016, published 2025)
# Where a chain is given by its changes, count along the chain named.
# B1: TR01H037-E22Hh/none-Hi-Kn010G3/L0000-k0 (antibody, V domains shown)
# VH: QVQLVESGGGLVQPGRSLRLSCAASGFTFSNAWMPWVRQAPGKGLEWVAQIKGKSNNYATYYAESVKGRFTISRADSKNSIYLQMNSLKTEDTAVYYCRYVHYSASYGVDIWGQGTTVTVSS
# VL: DIVMTQSPLSLPVTPGEPASISCRSSQSLVHSNRNTYLHWYQQKPGQAPRLLIYKVSNRFSGVPDRFSGSGSGTDFTLKISRVEAEDVGVYYCGQGTQVPYTFGQGTKLEIKR
# notes: one-arm
# B2: TR01H046-E22Hh/none-Hi-Kn010G3/L0000-k0 (antibody, V domains shown)
# VH: B1 VH with A23S, P35H, G53D, N56Q, I111Y
# VL: B1 VL
# notes: one-arm
# B3: TR01H039-E22Hh/none-Hi-Kn010G3/L0000-k0 (antibody, V domains shown)
# VH: B1 VH with P35H, G53D, N56Q
# VL: B1 VL
# notes: one-arm
# B4: TR01H040-E22Hh/none-Hi-Kn010G3/L0212-k0 (antibody, V domains shown)
# VH: B1 VH with P35H, G53D, N56Q, I111A
# VL: B1 VL with S25P, L29P, G94Y
# notes: one-arm
# B5: TR01H040-E22Hh/none-Hi-Kn010G3/L0201-k0 (antibody, V domains shown)
# VH: B1 VH with P35H, G53D, N56Q, I111A
# VL: B1 VL with S28P, L29P
# notes: one-arm
# B6: TR01H048-E22Hh/none-Hi-Kn010G3/L0000-k0 (antibody, V domains shown)
# VH: B1 VH with P35H, G53D, N56Q, A75D
# VL: B1 VL
# notes: one-arm
# B7: TR01H061-E22Hh/none-Hi-Kn010G3/L0000-k0 (antibody, V domains shown)
# VH: B1 VH with P35H, G53D, N56Q, S104A
# VL: B1 VL
# notes: one-arm
# B8: TR01H067-E22Hh/none-Hi-Kn010G3/L0212-k0 (antibody, V domains shown)
# VH: B1 VH with P35H, G53D, N56Q, A75D, I81L, S104A, I111A
# VL: B1 VL with S25P, L29P, G94Y
# notes: one-arm
# B9: TR01H071-E22Hh/none-Hi-Kn010G3/L0222-k0 (antibody, V domains shown)
# VH: B1 VH with P35H, G53D, S104A
# VL: B1 VL with L29P, L38I, H39Q, G94Y
# notes: one-arm
# B10: TR01H044-E22Hh/none-Hi-Kn010G3/L0000-k0 (antibody, V domains shown)
# VH: B1 VH with A23S, P35H, G53D, N56Q
# VL: B1 VL
# notes: one-arm
# B11: TR01H058-E22Hh/none-Hi-Kn010G3/L0000-k0 (antibody, V domains shown)
# VH: B1 VH with P35H, G53D, N56Q, A75D, I81L, I111Y
# VL: B1 VL
# notes: one-arm
# B12: TR01H061-E22Hh/none-Hi-Kn010G3/L0222-k0 (antibody, V domains shown)
# VH: B1 VH with P35H, G53D, N56Q, S104A
# VL: B1 VL with L29P, L38I, H39Q, G94Y
# notes: one-arm
# B13: TR01H055-E22Hh/none-Hi-Kn010G3/L0000-k0 (antibody, V domains shown)
# VH: B1 VH with P35H, G53D, A75D, I81L
# VL: B1 VL
# notes: one-arm
# B14: TR01H049-E22Hh/none-Hi-Kn010G3/L0000-k0 (antibody, V domains shown)
# VH: B1 VH with P35H, G53D, N56Q, A75D, I111A
# VL: B1 VL
# notes: one-arm
# B15: TR01H071-E22Hh/none-Hi-Kn010G3/L0000-k0 (antibody, V domains shown)
# VH: B1 VH with P35H, G53D, S104A
# VL: B1 VL
# notes: one-arm
# B16: TR01H040-E22Hh/none-Hi-Kn010G3/L0204-k0 (antibody, V domains shown)
# VH: B1 VH with P35H, G53D, N56Q, I111A
# VL: B1 VL with L29P, S61R
# notes: one-arm
# B17: TR01H047-E22Hh/none-Hi-Kn010G3/L0000-k0 (antibody, V domains shown)
# VH: B1 VH with P35H, G53D, A75D
# VL: B1 VL
# notes: one-arm
# B18: TR01H057-E22Hh/none-Hi-Kn010G3/L0000-k0 (antibody, V domains shown)
# VH: B1 VH with P35H, G53D, N56Q, A75D, I81L, I111A
# VL: B1 VL
# notes: one-arm
# B19: TR01H056-E22Hh/none-Hi-Kn010G3/L0000-k0 (antibody, V domains shown)
# VH: B1 VH with P35H, G53D, N56Q, A75D, I81L
# VL: B1 VL
# notes: one-arm
# B20: TR01H067-E22Hh/none-Hi-Kn010G3/L0000-k0 (antibody, V domains shown)
# VH: B1 VH with P35H, G53D, N56Q, A75D, I81L, S104A, I111A
# VL: B1 VL
# notes: one-arm
# B21: TR01H069-E22Hh/none-Hi-Kn010G3/L0000-k0 (antibody, V domains shown)
# VH: B1 VH with L11V, R16G, P35H, G53D, N56Q, A75D, I81L, S104A
# VL: B1 VL
# notes: one-arm
# B22: TR01H040-E22Hh/none-Hi-Kn010G3/L0211-k0 (antibody, V domains shown)
# VH: B1 VH with P35H, G53D, N56Q, I111A
# VL: B1 VL with S28P, L29P, G94Y
# notes: one-arm
# B23: TR01H063-E22Hh/none-Hi-Kn010G3/L0000-k0 (antibody, V domains shown)
# VH: B1 VH with L11V, R16G, P35H, G53D, N56Q, S104A, I111A
# VL: B1 VL
# notes: one-arm
# B24: TR01H052-E22Hh/none-Hi-Kn010G3/L0000-k0 (antibody, V domains shown)
# VH: B1 VH with P35H, G53D, N56Q, I81L
# VL: B1 VL
# notes: one-arm
# B25: TR01H067-E22Hh/none-Hi-Kn010G3/L0011-k0 (antibody, V domains shown)
# VH: B1 VH with P35H, G53D, N56Q, A75D, I81L, S104A, I111A
# VL: B1 VL with S28P
# notes: one-arm
# B26: TR01H040-E22Hh/none-Hi-Kn010G3/L0208-k0 (antibody, V domains shown)
# VH: B1 VH with P35H, G53D, N56Q, I111A
# VL: B1 VL with L29P, S61W, G94Y
# notes: one-arm
# B27: TR01H067-E22Hh/none-Hi-Kn010G3/L0222-k0 (antibody, V domains shown)
# VH: B1 VH with P35H, G53D, N56Q, A75D, I81L, S104A, I111A
# VL: B1 VL with L29P, L38I, H39Q, G94Y
# notes: one-arm
# B28: TR01H050-E22Hh/none-Hi-Kn010G3/L0000-k0 (antibody, V domains shown)
# VH: B1 VH with P35H, G53D, N56Q, A75D, I111Y
# VL: B1 VL
# notes: one-arm
# B29: TR01H065-E22Hh/none-Hi-Kn010G3/L0000-k0 (antibody, V domains shown)
# VH: B1 VH with P35H, G53D, N56Q, A75D, S104A, I111A
# VL: B1 VL
# notes: one-arm
# B30: TR01H068-E22Hh/none-Hi-Kn010G3/L0000-k0 (antibody, V domains shown)
# VH: B1 VH with L11V, R16G, P35H, G53D, N56Q, A75D, I81L, S104A, I111A
# VL: B1 VL
# notes: one-arm
# B31: TR01H070-E22Hh/none-Hi-Kn010G3/L0000-k0 (antibody, V domains shown)
# VH: B1 VH with L11V, R16G, P35H, G53D, N56Q, A75D, I81L, S104A, I111Y
# VL: B1 VL
# notes: one-arm
# B32: TR01H040-E22Hh/none-Hi-Kn010G3/L0000-k0 (antibody, V domains shown)
# VH: B1 VH with P35H, G53D, N56Q, I111A
# VL: B1 VL
# notes: one-arm
# B33: TR01H064-E22Hh/none-Hi-Kn010G3/L0000-k0 (antibody, V domains shown)
# VH: B1 VH with A23S, P35H, G53D, N56Q, S104A, I111A
# VL: B1 VL
# notes: one-arm
# B34: TR01H042-E22Hh/none-Hi-Kn010G3/L0000-k0 (antibody, V domains shown)
# VH: B1 VH with L11V, R16G, P35H, G53D, N56Q, I111A
# VL: B1 VL
# notes: one-arm
# B35: TR01H040-E22Hh/none-Hi-Kn010G3/L0209-k0 (antibody, V domains shown)
# VH: B1 VH with P35H, G53D, N56Q, I111A
# VL: B1 VL with L29P, L38I, G94Y
# notes: one-arm
# B36: TR01H054-E22Hh/none-Hi-Kn010G3/L0000-k0 (antibody, V domains shown)
# VH: B1 VH with P35H, G53D, N56Q, I81L, I111Y
# VL: B1 VL
# notes: one-arm
# B37: TR01H040-E22Hh/none-Hi-Kn010G3/L0011-k0 (antibody, V domains shown)
# VH: B1 VH with P35H, G53D, N56Q, I111A
# VL: B1 VL with S28P
# notes: one-arm
# B38: TR01H038-E22Hh/none-Hi-Kn010G3/L0000-k0 (antibody, V domains shown)
# VH: B1 VH with P35H, G53D
# VL: B1 VL
# notes: one-arm
# B39: TR01H041-E22Hh/none-Hi-Kn010G3/L0000-k0 (antibody, V domains shown)
# VH: B1 VH with P35H, G53D, N56Q, I111Y
# VL: B1 VL
# notes: one-arm
# B40: TR01H043-E22Hh/none-Hi-Kn010G3/L0000-k0 (antibody, V domains shown)
# VH: B1 VH with A23S, P35H, G53D
# VL: B1 VL
# notes: one-arm
# B41: TR01H040-E22Hh/none-Hi-Kn010G3/L0206-k0 (antibody, V domains shown)
# VH: B1 VH with P35H, G53D, N56Q, I111A
# VL: B1 VL with L29P, G94Y
# notes: one-arm
# B42: TR01H045-E22Hh/none-Hi-Kn010G3/L0000-k0 (antibody, V domains shown)
# VH: B1 VH with A23S, P35H, G53D, N56Q, I111A
# VL: B1 VL
# notes: one-arm
# B43: TR01H040-E22Hh/none-Hi-Kn010G3/L0222-k0 (antibody, V domains shown)
# VH: B1 VH with P35H, G53D, N56Q, I111A
# VL: B1 VL with L29P, L38I, H39Q, G94Y
# notes: one-arm
# B44: TR01H053-E22Hh/none-Hi-Kn010G3/L0000-k0 (antibody, V domains shown)
# VH: B1 VH with P35H, G53D, N56Q, I81L, I111A
# VL: B1 VL
# notes: one-arm
# B45: TR01H067-E22Hh/none-Hi-Kn010G3/L0201-k0 (antibody, V domains shown)
# VH: B1 VH with P35H, G53D, N56Q, A75D, I81L, S104A, I111A
# VL: B1 VL with S28P, L29P
# notes: one-arm
# B46: TR01H040-E22Hh/none-Hi-Kn010G3/L0203-k0 (antibody, V domains shown)
# VH: B1 VH with P35H, G53D, N56Q, I111A
# VL: B1 VL with L29P, L38I
# notes: one-arm
# B47: TR01H051-E22Hh/none-Hi-Kn010G3/L0000-k0 (antibody, V domains shown)
# VH: B1 VH with P35H, G53D, I81L
# VL: B1 VL
# notes: one-arm
# B48: TR01H067-E22Hh/none-Hi-Kn010G3/L0203-k0 (antibody, V domains shown)
# VH: B1 VH with P35H, G53D, N56Q, A75D, I81L, S104A, I111A
# VL: B1 VL with L29P, L38I
# notes: one-arm
# B49: TR01H066-E22Hh/none-Hi-Kn010G3/L0000-k0 (antibody, V domains shown)
# VH: B1 VH with P35H, G53D, N56Q, I81L, S104A, I111A
# VL: B1 VL
# notes: one-arm
# Target: T1, soluble human CD3 epsilon chain (human, UniProt P07766 23-126)
# T1 construct: also called CD3ε
# T1 sequence (P07766 23-126 limits assumed): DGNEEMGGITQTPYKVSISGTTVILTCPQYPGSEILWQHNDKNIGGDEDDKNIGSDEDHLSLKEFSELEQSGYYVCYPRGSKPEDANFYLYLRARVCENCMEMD
# Experiment: SPR
row,Kd,Binder
1,6.93 nM,B1
2,42.3 nM,B2
3,26.1 nM,B3
4,2.17 nM,B4
5,28.1 nM,B5
6,45.2 nM,B6
7,17.1 nM,B7
8,5.88 nM,B8
9,10.4 nM,B9
10,35.2 nM,B10
11,115 nM,B11
12,18.8 nM,B12
13,38.8 nM,B13
14,67.9 nM,B14
15,8.85 nM,B15
16,22.1 nM,B16
17,20.4 nM,B17
18,112 nM,B18
19,73.2 nM,B19
20,71.5 nM,B20
21,71.1 nM,B21
22,3.22 nM,B22
23,43.5 nM,B23
24,62.7 nM,B24
25,71.8 nM,B25

row,Kd,Binder
1,4.16 nM,B26
2,76.3 nM,B27
3,57.6 nM,B28
4,43.1 nM,B29
5,101 nM,B30
6,120 nM,B31
7,36 nM,B32
8,30.7 nM,B33
9,44.8 nM,B34
10,4.25 nM,B35
11,77.9 nM,B36
12,34.8 nM,B37
13,12.4 nM,B38
14,31.6 nM,B39
15,15.2 nM,B40
16,2.9 nM,B41
17,52.2 nM,B42
18,46.5 nM,B43
19,82.3 nM,B44
20,59.3 nM,B45
21,32.4 nM,B46
22,29.1 nM,B47
23,47.9 nM,B48
24,60.2 nM,B49
